Laboratory results: the supplement of paper PMC5998384

Test system: HeLa Kyoto
Assay: melting temperature (median over replicates), in situ; higher = more thermally stable
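Also: HeLa Kyoto cells synchronized by double thymidine or nocodazole block, proteins quantified by TMT10plex mass spectrometry, three independent biological replicates.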

DESI2, sequence (chain, as listed by the source): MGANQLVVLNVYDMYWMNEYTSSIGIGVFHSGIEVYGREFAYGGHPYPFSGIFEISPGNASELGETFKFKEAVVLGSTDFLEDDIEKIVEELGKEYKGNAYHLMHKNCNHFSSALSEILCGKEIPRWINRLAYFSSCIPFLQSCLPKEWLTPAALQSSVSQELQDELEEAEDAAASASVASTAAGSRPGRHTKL

| Substance | melting temperature (cell cycle stage: G1/S) | melting temperature (cell cycle stage: mitosis) |
| --- | --- | --- |
| DESI2 | 53.8 °C | – |
| MAAAAAGAGSGPWAAQEKQFPPALLSFFIYNPRFGPREGQEENKILFYHPNEVEKNEKIRNVGLCEAIVQFTRTFSPSKPAKSLHTQKNRQFFNEPEENFWMVMVVRNPIIEKQSKDGKPVIEYQEEELLDKVYSSVLRQCYSMYKLFNGTFLKAMEDGGVKLLKERLEKFFHRYLQTLHLQSCDLLDIFGGISFFPLDKMTYLKIQSFINRMEESLNIVKYTAFLYNDQLIWSGLEQDDMRILYKYLTTSLFPRHIEPELAGRDSPIRAEMPGNLQHYGRFLTGPLNLNDPDAKCRFPKIFVNTDDTYEELHLIVYKAMSAAVCFMIDASVHPTLDFCRRLDSIVGPQLTVLASDICEQFNINKRMSGSEKEPQFKFIYFNHMNLAEKSTVHMRKTPSVSLTSVHPDLMKILGDINSDFTRVDEDEEIIVKAMSDYWVVGKKSDRRELYVILNQKNANLIEVNEEVKKLCATQFNNIFFLD [CCZ1B] | 50.9 °C | 51.8 °C |
| MAAHRKHVFVEKVLQRLFPPVPSGQGKREPQTLAVQNPPKKVTSEKVSQKHAEPLTDTGSETPTARRLYTASGPPEGYVPCWPEPSSCGSPENASSGDDTEDQDPHDQPKRRRIRKHKSKKKFKNPNNVLIEQAELEKQQSLLQEKSQRQHTDGTTISKNKKRKLKKKQQIKRKKAAGLAAKAAGVSFMYQPEDSSNEGEGVGEACEEDGVDTSEEDPTLAGEEDVKDTREEDGADASEEDLTRARQEEGADASEEDPTPAGEEDVKDAREEDGVDTIEEDLTRAGEEDGKDTREEDGADASEEDPTWAGEEEGADSGEEDGADASEEDDTITNEKAHSILNFLKSTQEMYFYDGVSRDAASAALADAAEELLDRLASHSMLPSDVSILYHMKTLLLLQDTERLKHALEMFPEHCTMPPDHARVISAFFSYWITHILPEKSSD [ERICH1] | – | 52.6 °C |
| MAEAEESPGDPGTASPRPLFAGLSDISISQDIPVEGEITIPMRSRIREFDSSTLNESVRNTIMRDLKAVGKKFMHVLYPRKSNTLLRDWDLWGPLILCVTLALMLQRDSADSEKDGGPQFAEVFVIVWFGAVTITLNSKLLGGNISFFQSLCVLGYCILPLTVAMLICRLVLLADPGPVNFMVRLFVVIVMFAWSIVASTAFLADSQPPNRRALAVYPVFLFYFVISWMILTFTPQ [YIPF6] | 55 °C | 54.6 °C |
| MAGAGSAAVSGAGTPVAGPTGRDLFAEGLLEFLRPAVQQLDSHVHAVRESQVELREQIDNLATELCRINEDQKVALDLDPYVKKLLNARRRVVLVNNILQNAQERLRRLNHSVAKETARRRAMLDSGIYPPGSPGK [SNAPIN] | 53 °C | 54.5 °C |
| MAGLEVLFASAAPAITCRQDALVCFLHWEVVTHGYFGLGVGDQPGPNDKKSELLPAGWNNNKDLYVLRYEYKDGSRKLLVKAITVESSMILNVLEYGSQQVADLTLNLDDYIDAEHLGDFHRTYKNSEELRSRIVSGIITPIHEQWEKANVSSPHREFPPATAREVDPLRIPPHHPHTSRQPPWCDPLGPFVVGGEDLDPFGPRRGGMIVDPLRSGFPRALIDPSSGLPNRLPPGAVPPGARFDPFGPIGTSPPGPNPDHLPPPGYDDMYL [PSMF1] | – | 53 °C |
| MAPRALPGSAVLAAAVFVGGAVSSPLVAPDNGSSRTLHSRTETTPSPSNDTGNGHPEYIAYALVPVFFIMGLFGVLICHLLKKKGYRCTTEAEQDIEEEKVEKIELNDSVNENSDTVGQIVHYIMKNEANADVLKAMVADNSLYDPESPVTPSTPGSPPVSPGPLSPGGTPGKHVCGHHLHTVGGVVERDVCHRCRHKRWHFIKPTNKSRESRPRRQGEVTVLSVGRFRVTKVEHKSNQKERRSLMSVSGAETVNGEVPATPVKRERSGTE [RELL1] | 54.7 °C | – |
| MAQEVDTAQGAEMRRGAGAARGRASWCWALALLWLAVVPGWSRVSGIPSRRHWPVPYKRFDFRPKPDPYCQAKYTFCPTGSPIPVMEGDDDIEVFRLQAPVWEFKYGDLLGHLKIMHDAIGFRSTLTGKNYTMEWYELFQLGNCTFPHLRPEMDAPFWCNQGAACFFEGIDDVHWKENGTLVQVATISGNMFNQMAKWVKQDNETGIYYETWNVKASPEKGAETWFDSYDCSKFVLRTFNKLAEFGAEFKNIETNYTRIFLYSGEPTYLGNETSVFGPTGNKTLGLAIKRFYYPFKPHLPTKEFLLSLLQIFDAVIVHKQFYLFYNFEYWFLPMKFPFIKITYEEIPLPIRNKTLSGL [CLN5] | – | 53.8 °C |
| MASGGGGGNTGAGGGPGMGLSLGLGLGLSLGMSEATSEAEEEAATAEAVGRLATTLWLRLRGWEAVLAAAQRLLVWEKPLHSLVTAAALNGLFWLLSSSSLRPFFLLSVSLLAYFLLDLWQPRFLPDVSASSPEEPHSDSEGAGSGARPHLLSVPELCRYLAESWLTFQIHLQELLQYKRQNPAQFCVRVCSGCAVLAVLGHYVPGIMISYIVLLSILLWPLVVYHELIQRMYTRLEPLLMQLDYSMKAEANALHHKHDKRKRQGKNAPPGGDEPLAETESESEAELAGFSPVVDVKKTALALAITDSELSDEEASILESGGFSVSRATTPQLTDVSEDLDQQSLPSEPEETLSRDLGEGEEGELAPPEDLLGRPQALSRQALDSEEEEEDVAAKETLLRLSSPLHFVNTHFNGAGSPPDGVKCSPGGPVETLSPETVSGGLTALPGTLSPPLCLVGSDPAPSPSILPPVPQDSPQPLPAPEEEEALTTEDFELLDQGELEQLNAELGLEPETPPKPPDAPPLGPDIHSLVQSDQEAQAVAEP [FAM134A] | – | 55.2 °C |
| MASLKCSTVVCVICLEKPKYRCPACRVPYCSVVCFRKHKEQCNPETRPVEKKIRSALPTKTVKPVENKDDDDSIADFLNSDEEEDRVSLQNLKNLGESATLRSLLLNPHLRQLMVNLDQGEDKAKLMRAYMQEPLFVEFADCCLGIVEPSQNEES [ZNHIT3] | 50.4 °C | 52.7 °C |
| MATQAKRPRVAGPVDGGDLDPVACFLSWCRRVGLELSPKVSERAGGRRTRGGARAALTSPPAQVAVSRQGTVAGYGMVARESVQAGELLFVVPRAALLSQHTCSIGGLLERERVALQSQSGWVPLLLALLHELQAPASRWRPYFALWPELGRLEHPMFWPEEERRCLLQGTGVPEAVEKDLANIRSEYQSIVLPFMEAHPDLFSLRVRSLELYHQLVALVMAYSFQEPLEEEEDEKEPNSPVMVPAADILNHLANHNANLEYSANCLRMVATQPIPKGHEIFNTYGQMANWQLIHMYGFVEPYPDNTDDTADIQMVTVREAALQGTKTEAERHLVYERWDFLCKLEMVGEEGAFVIGREEVLTEEELTTTLKVLCMPAEEFRELKDQDGGGDDKREEGSLTITNIPKLKASWRQLLQNSVLLTLQTYATDLKTDQGLLSNKEVYAKLSWREQQALQVRYGQKMILHQLLELTS [SETD6] | – | 50.4 °C |
| MEADGDGEELARLRSVFAACDANRSGRLEREEFRALCTELRVRPADAEAVFQRLDADRDGAITFQEFARGFLGSLRGGRRRDWGPLDPAPAVSEAGPETHDSEEDEGDEDAAAALATSCGPASPGRAWQDFQARLGDEAKFIPREEQVSTLYQNINLVEPRLIQPYEHVIKNFIREIRLQSTEMENLAIAVKRAQDKAAMQLSELEEEMDQRIQAAEHKTRKDEKRKAEEALSDLRRQYETEVGDLQVTIKKLRKLEEQSKRVSQKEDVAALKKQIYDLSMENQKVKKDLLEAQTNIAFLQSELDALKSDYADQSLNTERDLEIIRAYTEDRNSLERQIEILQTANRKLHDSNDGLRSALENSYSKFNRSLHINNISPGNTISRSSPKFIGHSPQPLGYDRSSRSSYVDEDCDSLALCDPLQRTNCEVDSLPESCFDSGLSTLRDPNEYDSEVEYKHQRGFQRSHGVQESFGGDASDTDVPDIRDEETFGLEDVASVLDWKPQGSVSEGSIVSSSRKPISALSPQTDLVDDNAKSFSSQKAYKIVLAGDAAVGKSSFLMRLCKNEFRENISATLGVDFQMKTLIVDGERTVLQLWDTAGQERFRSIAKSYFRKADGVLLLYDVTCEKSFLNIREWVDMIEDAAHETVPIMLVGNKADIRDTAATEGQKCVPGHFGEKLAMTYGALFCETSAKDGSNIVEAVLHLAREVKKRTDKDDSRSITNLTGTNSKKSPQMKNCCNG [RASEF] | 49.8 °C | 50 °C |
| MELIQDTSRPPLEYVKGVPLIKYFAEALGPLQSFQARPDDLLINTYPKSGTTWVSQILDMIYQGGDLEKCNRAPIYVRVPFLEVNDPGEPSGLETLKDTPPPRLIKSHLPLALLPQTLLDQKVKVVYVARNPKDVAVSYYHFHRMEKAHPEPGTWDSFLEKFMAGEVSYGSWYQHVQEWWELSRTHPVLYLFYEDMKENPKREIQKILEFVGRSLPEETMDFMVQHTSFKEMKKNPMTNYTTVPQELMDHSISPFMRKGMAGDWKTTFTVAQNERFDADYAEKMAGCSLSFRSEL [SULT1A4] | 48.5 °C | 49.2 °C |
